Patent US20030232387A1

Legend:
[1] = target: E-cadherin-IgG fusion protein (human) (UniProt P12830); assay: cell adhesion assay; buffer with Ca^2+ and Mg^2+ (1 mM each)
[2] = target: E-cadherin-IgG fusion protein (human) (UniProt P12830); assay: cell adhesion assay; buffer with EDTA (5 mM)
[3] = target: E-cadherin-IgG fusion protein (human) (UniProt P12830); assay: cell adhesion assay; buffer with Ca^2+, Mg^2+ and Mn^2+ (1 mM each)
[4] = target: human αEβ7 integrin expressed on cells (human) (UniProt P38570); assay: staining of K562 αEβ7 cells, 2.5 µg/ml; Ca^2+ and Mg^2+ (1 mM each)
[5] = target: human αEβ7 integrin expressed on cells (human) (UniProt P38570); assay: staining of K562 αEβ7 cells, 10 µg/ml; Ca^2+ and Mg^2+ (1 mM each)
[6] = target: human αEβ7 integrin expressed on cells (human) (UniProt P38570); assay: staining of K562 αEβ7 cells, 5 µg/ml; Ca^2+, Mg^2+ and Mn^2+ (1 mM each)

Chain of human αEβ7 integrin expressed on cells (human) (P38570 other isoform, or with tags, fused parts or gaps limits assumed, chain 1 of 2): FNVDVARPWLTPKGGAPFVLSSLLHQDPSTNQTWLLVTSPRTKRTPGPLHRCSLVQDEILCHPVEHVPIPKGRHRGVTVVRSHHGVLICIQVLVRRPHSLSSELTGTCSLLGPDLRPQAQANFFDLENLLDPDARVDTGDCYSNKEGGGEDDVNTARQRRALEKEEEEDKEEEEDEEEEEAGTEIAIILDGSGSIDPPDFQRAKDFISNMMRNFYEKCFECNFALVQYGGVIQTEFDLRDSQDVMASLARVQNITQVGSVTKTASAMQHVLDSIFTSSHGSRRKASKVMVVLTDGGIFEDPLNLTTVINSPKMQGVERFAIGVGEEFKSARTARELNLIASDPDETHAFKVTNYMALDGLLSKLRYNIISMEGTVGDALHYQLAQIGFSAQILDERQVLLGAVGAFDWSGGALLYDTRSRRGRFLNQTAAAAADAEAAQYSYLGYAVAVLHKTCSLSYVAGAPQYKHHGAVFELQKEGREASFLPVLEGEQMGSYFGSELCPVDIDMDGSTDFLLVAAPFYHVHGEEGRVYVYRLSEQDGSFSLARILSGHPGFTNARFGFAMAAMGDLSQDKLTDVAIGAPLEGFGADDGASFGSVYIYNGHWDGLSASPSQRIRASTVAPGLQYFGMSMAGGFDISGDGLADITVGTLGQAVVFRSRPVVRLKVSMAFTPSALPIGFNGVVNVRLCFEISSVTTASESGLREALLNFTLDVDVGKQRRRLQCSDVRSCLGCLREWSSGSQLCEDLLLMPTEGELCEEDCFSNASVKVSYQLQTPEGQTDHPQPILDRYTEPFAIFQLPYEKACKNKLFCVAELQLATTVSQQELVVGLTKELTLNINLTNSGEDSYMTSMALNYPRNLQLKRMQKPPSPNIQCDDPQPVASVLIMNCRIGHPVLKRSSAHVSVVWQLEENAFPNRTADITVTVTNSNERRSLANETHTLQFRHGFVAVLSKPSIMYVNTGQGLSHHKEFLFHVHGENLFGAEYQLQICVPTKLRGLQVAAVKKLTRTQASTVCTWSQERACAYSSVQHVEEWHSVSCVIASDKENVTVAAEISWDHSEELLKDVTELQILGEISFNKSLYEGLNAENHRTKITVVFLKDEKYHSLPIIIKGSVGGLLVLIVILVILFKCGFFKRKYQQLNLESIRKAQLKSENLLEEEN
Chain of human αEβ7 integrin expressed on cells (human) (chain, as listed by the source limits assumed, chain 2 of 2): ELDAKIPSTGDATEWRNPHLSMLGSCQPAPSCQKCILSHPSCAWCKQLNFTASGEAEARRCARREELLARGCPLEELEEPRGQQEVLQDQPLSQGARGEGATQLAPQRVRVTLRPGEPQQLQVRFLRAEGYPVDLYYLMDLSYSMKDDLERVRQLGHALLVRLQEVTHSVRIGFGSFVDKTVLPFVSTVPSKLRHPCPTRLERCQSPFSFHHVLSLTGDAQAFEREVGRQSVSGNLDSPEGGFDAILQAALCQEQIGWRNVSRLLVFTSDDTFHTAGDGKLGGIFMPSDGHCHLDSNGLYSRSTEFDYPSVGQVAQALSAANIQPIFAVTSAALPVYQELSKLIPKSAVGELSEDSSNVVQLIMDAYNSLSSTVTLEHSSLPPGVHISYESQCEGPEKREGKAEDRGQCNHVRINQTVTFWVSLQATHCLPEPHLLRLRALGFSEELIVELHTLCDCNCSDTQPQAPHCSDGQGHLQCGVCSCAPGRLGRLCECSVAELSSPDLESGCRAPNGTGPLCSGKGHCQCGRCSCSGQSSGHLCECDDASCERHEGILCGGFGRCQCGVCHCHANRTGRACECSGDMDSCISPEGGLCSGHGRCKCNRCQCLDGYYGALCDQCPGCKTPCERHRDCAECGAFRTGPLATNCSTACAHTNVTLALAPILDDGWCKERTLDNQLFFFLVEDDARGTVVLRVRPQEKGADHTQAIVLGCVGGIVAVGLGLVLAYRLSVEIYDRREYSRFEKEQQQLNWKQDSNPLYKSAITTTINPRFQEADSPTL

Row | % cells bound to immobilized E-cadherin [1] [%] | % cells bound to immobilized E-cadherin [2] [%] | % cells bound to immobilized E-cadherin [3] [%] | Binding (mean fluorescence intensity) [4] [MFI] | Binding (mean fluorescence intensity) [5] [MFI] | Binding (mean fluorescence intensity) [6] [MFI] | Substance
1 | 40 | < 10 | 60 |  |  |  | human αEβ7 integrin expressed on cells (from UniProt P38570 19-1179; P26010 20-798) (receptor)
2 |  |  |  | < 25 | 75 | 100 | E-cadherin-IgG fusion protein (from UniProt P12830 155-699) (Fc fusion)
